Assay type in all cases: physicochemical
A short description of data set [1]: Retention of peptides 2DOS-1 to 2DOS-16 on a hydrophobic surface (polypropylene microtitre plate wells), water wash. As to conditions: 400V scan; for Initial fluorescence (×10^3): 100 μl of 10 μM peptide before drying and washing; for Recovered fluorescence (×10^3): dried, washed ten times with 250 μl water, resuspended. The protocol: The retention of peptides 2DOS-1 to 2DOS-16 on a hydrophobic surface (the wells of a polypropylene microtitre plate) was then investigated.
(§1) 10 mM tris-HCl (pH 8.0) in 50% (v/v) aqueous acetonitrile was used as the solvent for the peptides and for TAMRA.
100 μl aliquots of 10 μM peptides 2DOS-1 to 2DOS-16 and 10 μM TAMRA were placed in the wells of a Costar microtitre plate as shown in FIG. 13:
The microtitre plate was imaged at 200 μm resolution on a Typhoon Trio Plus variable mode imager (Amersham Biosciences) with the green (532 nm) laser and the 580 BP 30 filter at the PMT voltages indicated below and at normal sensitivity. The scan height was set at +3 mm and the sample was pressed during scanning.
The peptides were allowed to evaporate to dryness overnight in the dark and the microtitre plate was again scanned as described above.
The wells were then washed ten times with 250 μl of water.
The residual surface-bound peptides were finally resuspended in 100 μl of 10 mM tris-HCl (pH 8.0) in 50% (v/v) aqueous acetonitrile and the microtitre plate was again scanned as described above.
(§2) The fluorescence images were analysed using ImageQuant TL v2003.03 (Amersham Biosciences).
Quantification data (using the data from the 400V scan) is given in Table 2 and shown graphically in FIG. 15.

Data set [2] can be described thus: Retention of peptides in V-bottomed polypropylene wells. As to conditions: V-bottom wells, 500V scan; for Untreated fluorescence: unwashed; for Retained fluorescence: washed 15 minutes in 1 M NaCl in 10 mM tris-HCl (pH 8.0). The protocol:
(§3) The retention of peptides 2DOS-1 to 2DOS-16 (see above) on polypropylene wells of different geometries was investigated:
as §1
(§4) 1 μl aliquots of 10 μM peptides 2DOS-1 to 2DOS-16 and 10 μM TAMRA were pipetted into the wells of a Costar V-bottomed polypropylene microtitre plate and a Greiner flat-bottomed polypropylene microtitre plate according to the following scheme as shown in FIG. 22:
(§5) The peptide samples were allowed to evaporate to dryness in the dark.
(§6) The peptide samples in the top two rows of the microtitre plates were then incubated for 15′ minutes at room temperature in 250 μl of 1 M NaCl in 10 mM tris-HCl (pH 8.0).
(§7) After incubation, the wash buffer was pipetted up and down eight times in the well before removing the supernatant.
(§8) The washed and untreated peptide samples were then resuspended in 50 μl of 10 mM tris-HCl (pH 8.0) in 50% (v/v) aqueous acetonitrile.
(§9) The microtitre plates were imaged at 200 μm resolution on a Typhoon Trio Plus variable mode imager (Amersham Biosciences) with the green (532 nm) laser and the 580 BP 30 filter at the PMT voltages indicated below and at normal sensitivity. The scan height was set at the platen and the sample was pressed during, scanning.
as §2

Data set [3] can be described thus: Retention of peptides in flat-bottomed polypropylene wells. The following applies: flat-bottom wells, 500V scan; for Untreated fluorescence: unwashed; for Retained fluorescence: washed 15 minutes in 1 M NaCl in 10 mM tris-HCl (pH 8.0). As for the experimental part: as §3, §1, §4, §5, §6, §7, §8, §9, §2
Data set [4] can be described thus: Retention of peptides on Costar polypropylene V-bottom wells. As to conditions: 400V scan; for Untreated fluorescence: unwashed; for Retained fluorescence: washed 15 minutes in 1 M NaCl in 10 mM tris-HCl (pH 8.0). The protocol:
(§10) The retention of peptides 2DOS-1 to 2DOS-16 (see above) on polypropylene and polystyrene surfaces was compared:
(§11) 5 mM tris-HCl (pH 8.0) in 75% (v/v) aqueous acetonitrile was used as the solvent for the peptides and for TAMRA.
(§12) 20 μl aliquots of 5 μM peptides 2DOS-1 to 2DOS-16 and 5 μM TAMRA were pipetted into the wells of a Costar V-bottomed polypropylene microtitre plate, a Greiner V-bottomed polypropylene microtitre plate, and a Greiner V-bottomed polystyrene microtitre plate according to the scheme shown in FIG. 26:
as §5
(§13) The peptide samples in the top two rows of the microtitre plates were then incubated for 15 minutes at room temperature in 250 μl of 1 M NaCl in 10 mM tris-HCl (pH 8.0).
as §7, §8
(§14) The microtitre plates were imaged at 200 μm resolution on a Typhoon Trio Plus variable mode imager (Amersham Biosciences) with the green (532 nm) laser and the 580 BP 30 filter at the PMT voltages indicated below and at normal sensitivity. The scan height was set at +3 mm and the sample was pressed during scanning.
as §2

The nature of data set [5]: Retention of peptides on Greiner polypropylene V-bottom wells. The following applies: 400V scan; for Untreated fluorescence: unwashed; for Retained fluorescence: washed 15 minutes in 1 M NaCl in 10 mM tris-HCl (pH 8.0). The protocol: as §10, §11, §12, §5, §13, §7, §8, §14, §2
Data set [6] in a line: Retention of peptides on Greiner polystyrene V-bottom wells. The following applies: 400V scan; for Untreated fluorescence: unwashed; for Retained fluorescence: washed 15 minutes in 1 M NaCl in 10 mM tris-HCl (pH 8.0). The protocol: as §10, §11, §12, §5, §13, §7, §8, §14, §2

Ends that are not written are not given here.

For “N-TAMRA-Asp-Phe- Asp-Phe-Asp-Phe- Asp-C ({TAMRA}-DFDFDFD) [Peptide 2DOS-14]”, the “Initial fluorescence (×10^3)” value in data set [1] is on record as 28,071 ×10^3. For the same substance, the “Recovered fluorescence (×10^3)” value in data set [1] is 283 ×10^3. The Percent retention in data set [2] is listed as 13%; in data set [3], 4%; in data set [4], 11%; in data set [5], 13%; in data set [6] it was 9%. The Untreated fluorescence is on record as 7,641,246 in data set [2]; 15,090,582 in data set [3]; 5,331,894 in data set [4]; 3,612,113 in data set [5]; 860,811 in data set [6]. Moreover, the Retained fluorescence in data set [2] is 1,018,179; in data set [3], 670,341; in data set [4] it was 595,959; in data set [5], 461,468; in data set [6], 75,304.

Consider “N-TAMRA-Asp-Phe- Ala-Phe-Ser-Phe- Lys-C ({TAMRA}-DFAFSFK) [Peptide 2DOS-6]”, for which the “Initial fluorescence (×10^3)” value in data set [1] is on record as 33,853 ×10^3. In addition, the “Recovered fluorescence (×10^3)” value in data set [1] is listed as 1,455 ×10^3. In addition, the Percent retention in data set [2] is 39%; in data set [3], 36%; in data set [4], 22%; in data set [5], 22%; in data set [6], 25%. In addition, the Untreated fluorescence in data set [2] is 9,141,290; in data set [3], 14,539,109; in data set [4], 5,733,046; in data set [5] it was 3,889,995; in data set [6], 666,352. For the same substance, the Retained fluorescence is 3,527,116 in data set [2]; 5,256,539 in data set [3]; 1,256,204 in data set [4]; 849,582 in data set [5]; 167,118 in data set [6].

Regarding “N-TAMRA-Norleu- Asp-Norleu-Ala- Norleu-Ser-Norleu- Lys-Norleu-C [Peptide 2DOS-1]”, in data set [1], the “Initial fluorescence (×10^3)” value is 33,015 ×10^3. The “Recovered fluorescence (×10^3)” value in data set [1] is reported as 7,459 ×10^3. Further, the Percent retention in data set [2] was 70%; in data set [3], 14%; in data set [4] it was 52%; in data set [5] it was 37%; in data set [6] it was 35%. Besides, the Untreated fluorescence in data set [2] was 9,550,835; in data set [3], 14,949,396; in data set [4], 6,458,364; in data set [5] it was 3,328,960; in data set [6], 640,145. Also, the Retained fluorescence is recorded as 6,641,271 in data set [2]; 2,157,124 in data set [3]; 3,366,403 in data set [4]; 1,235,460 in data set [5]; 225,686 in data set [6].

For the substance “N-TAMPA-Asp-Asp- Ala-Asp-Ser-Asp- Lys-C ({TAMRA}-DDADSDK) [Peptide 2DOS-8]”, in data set [1], the “Initial fluorescence (×10^3)” value is listed as 33,615 ×10^3. Further, the “Recovered fluorescence (×10^3)” value in data set [1] is reported as 3 ×10^3. Moreover, the Percent retention in data set [2] worked out at 2%; in data set [3], 4%; in data set [4], 1%; in data set [5] it was 2%; in data set [6], 1%. Besides, the Untreated fluorescence in data set [2] was 10,130,734; in data set [3], 17,576,485; in data set [4] it was 6,587,741; in data set [5], 3,903,470; in data set [6], 842,984. Moreover, the Retained fluorescence in data set [2] is given as 202,943; in data set [3] it was 637,350; in data set [4], 93,455; in data set [5], 80,770; in data set [6], 5,071.

Regarding “N-TAMPA-Asp-Asp- Asp-Ala-Asp-Ser- Asp-Lys-Asp-C ({TAMRA}-DDDADSDKD) [Peptide 2DOS-4]”, the “Initial fluorescence (×10^3)” value in data set [1] was 32,313 ×10^3. The “Recovered fluorescence (×10^3)” value in data set [1] was 0 ×10^3. For the same substance, the Percent retention in data set [2] is listed as 2%; in data set [3] it was 2%; in data set [4] it was 1%; in data set [5], 1%; in data set [6], 1%. In addition, the Untreated fluorescence in data set [2] was 8,265,596; in data set [3], 11,885,905; in data set [4], 5,661,181; in data set [5], 3,937,734; in data set [6], 783,885. Besides, the Retained fluorescence in data set [2] is on record as 159,080; in data set [3], 198,507; in data set [4], 74,143; in data set [5], 50,669; in data set [6], 6,714.

As to “N-TAMPA-Asp-Asp- Asp-Asp-Asp-Asp- Asp-C ({TAMRA}-DDDDDDD) [Peptide 2DOS-16]”, the “Initial fluorescence (×10^3)” value in data set [1] is listed as 30,335 ×10^3. For the same substance, the “Recovered fluorescence (×10^3)” value in data set [1] was 3 ×10^3. In addition, the Percent retention in data set [2] is reported as 0%; in data set [3], 1%; in data set [4], 0%; in data set [5], 1%; in data set [6], 0%. Besides, the Untreated fluorescence in data set [2] is on record as 9,782,527; in data set [3] it was 15,555,465; in data set [4], 5,387,850; in data set [5], 3,813,060; in data set [6] it was 789,858. In addition, the Retained fluorescence in data set [2] is reported as 44,420; in data set [3] it was 229,090; in data set [4], 16,194; in data set [5], 25,885; in data set [6] it was 3,864.

In the case of “N-TAMPA-Asp-Asp- Asp-Asp-Asp-Asp- Asp-Asp-Asp-C ({TAMRA}-DDDDDDDDD) [Peptide 2DOS-12]”, in data set [1], the “Initial fluorescence (×10^3)” value is given as 26,433 ×10^3. Further, the “Recovered fluorescence (×10^3)” value in data set [1] is 1 ×10^3. Besides, the Percent retention in data set [2] was found to be 1%; in data set [3] it was 1%; in data set [4], 0%; in data set [5], 1%; in data set [6], 1%. In addition, the Untreated fluorescence was 6,777,661 in data set [2]; 12,982,170 in data set [3]; 4,432,090 in data set [4]; 3,235,590 in data set [5]; 684,832 in data set [6]. Also, the Retained fluorescence in data set [2] is reported as 52,365; in data set [3] it was 106,741; in data set [4], 18,180; in data set [5], 20,175; in data set [6], 3,788.

Values taken from patent publication US20090192048A1, “METHOD OF PRODUCING A […] AGENT FOR BINDING A LIGAND” (priority 2005, published 2009).
